Measurements as given in publication PMC4513855.

Experiments:
VirE2 = target: T1, VirE2 (Agrobacterium tumefaciens (nopaline …, UniProt P08062 1-556)); assay: SPRi
T1 sequence: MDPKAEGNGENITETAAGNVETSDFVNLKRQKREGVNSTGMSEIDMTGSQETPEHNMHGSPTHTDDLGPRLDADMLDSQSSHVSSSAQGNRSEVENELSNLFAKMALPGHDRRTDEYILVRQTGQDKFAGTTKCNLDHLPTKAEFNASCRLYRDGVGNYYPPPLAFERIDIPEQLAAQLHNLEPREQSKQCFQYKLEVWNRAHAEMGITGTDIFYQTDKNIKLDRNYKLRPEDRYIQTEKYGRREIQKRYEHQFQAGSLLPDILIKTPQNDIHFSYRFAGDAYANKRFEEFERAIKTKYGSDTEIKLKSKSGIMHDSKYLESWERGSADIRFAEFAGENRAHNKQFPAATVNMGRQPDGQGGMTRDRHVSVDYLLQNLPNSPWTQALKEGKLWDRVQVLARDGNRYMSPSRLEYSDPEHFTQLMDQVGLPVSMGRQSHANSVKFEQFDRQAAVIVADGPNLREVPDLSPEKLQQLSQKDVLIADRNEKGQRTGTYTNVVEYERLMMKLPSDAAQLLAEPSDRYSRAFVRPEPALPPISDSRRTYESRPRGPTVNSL

[1] = target: T2, VirE2 (co-expressed with VirE1);VirE1 (Agrobacterium tumefaciens (nopaline …, UniProt P08062;P08063 1-556;1-63, |)); assay: SPRi
T2 sequence 1: T1 sequence
T2 sequence 2: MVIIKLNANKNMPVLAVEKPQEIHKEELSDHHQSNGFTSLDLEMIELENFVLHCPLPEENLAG

B1: ssT40 (poly-T 40-mer) (ssDNA)
DNA: TTTTTTTTTTTTTTTTTTTTTTTTTTTTTTTTTTTTTTTT
modifications: 5' C6-thiol
- binding result (VirE2): binds
- binding result [1]: binds
